Source: patent US20140113872A1 (INSTITUT NATIONAL DE LA RECHERCHE SCIENTIFIQUE, published 2014)
Like-named read-outs stand apart in the source and are kept apart here. Numbered stars: 1 amine (or outer) side, 2 acyl side, 3 side chain; on linkers, the order of the positions; unused ones are H or OH. Bridge positions count the residues as written; N and C are the ends. Square brackets hold non-standard residues; d marks the D form. Ends that are not written are not given here. dTiq = D-1,2,3,4-tetrahydroisoquinoline-1-carboxylic acid, O=C([C@H]1c2ccccc2CCN1[*:1])[*:2]; Bip = N[C@@H](Cc1ccc(-c2ccccc2)cc1)C(=O)O; Dip = N[C@H](C(=O)O)C(c1ccccc1)c1ccccc1; Phe(4-I) = N[C@@H](Cc1ccc(I)cc1)C(=O)O; 1Nal = N[C@@H](Cc1cccc2ccccc12)C(=O)O; d1Nal = N[C@H](Cc1cccc2ccccc12)C(=O)O; Tiq1c(1S) = O=C(O)[C@H]1NCCc2ccccc21; Tic = O=C(O)[C@@H]1Cc2ccccc2CN1; dTic = O=C(O)[C@H]1Cc2ccccc2CN1; Cha = N[C@@H](CC1CCCCC1)C(=O)O; dPhg = N[C@@H](C(=O)O)c1ccccc1; dTle = CC(C)(C)[C@@H](N)C(=O)O; Phg = N[C@H](C(=O)O)c1ccccc1; dAia = not defined here

T1: human urotensin II receptor (UT) (human, UniProt Q9UKP6 1-389)
T1 construct: whole, on cells; also called hUT; hGPR14
T1 sequence (looked up): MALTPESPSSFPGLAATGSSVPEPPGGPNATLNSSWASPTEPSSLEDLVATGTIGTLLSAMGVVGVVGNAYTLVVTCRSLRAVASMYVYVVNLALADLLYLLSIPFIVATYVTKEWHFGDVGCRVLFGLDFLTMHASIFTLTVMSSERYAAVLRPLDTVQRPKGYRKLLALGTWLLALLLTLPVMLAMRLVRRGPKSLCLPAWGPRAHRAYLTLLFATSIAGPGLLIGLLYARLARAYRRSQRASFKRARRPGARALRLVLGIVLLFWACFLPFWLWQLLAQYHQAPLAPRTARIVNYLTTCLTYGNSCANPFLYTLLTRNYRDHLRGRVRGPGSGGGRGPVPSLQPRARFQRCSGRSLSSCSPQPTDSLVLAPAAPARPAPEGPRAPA

T2: UT receptor present in rat aortic ring (rat, UniProt P49684 1-386)
T2 sequence (looked up): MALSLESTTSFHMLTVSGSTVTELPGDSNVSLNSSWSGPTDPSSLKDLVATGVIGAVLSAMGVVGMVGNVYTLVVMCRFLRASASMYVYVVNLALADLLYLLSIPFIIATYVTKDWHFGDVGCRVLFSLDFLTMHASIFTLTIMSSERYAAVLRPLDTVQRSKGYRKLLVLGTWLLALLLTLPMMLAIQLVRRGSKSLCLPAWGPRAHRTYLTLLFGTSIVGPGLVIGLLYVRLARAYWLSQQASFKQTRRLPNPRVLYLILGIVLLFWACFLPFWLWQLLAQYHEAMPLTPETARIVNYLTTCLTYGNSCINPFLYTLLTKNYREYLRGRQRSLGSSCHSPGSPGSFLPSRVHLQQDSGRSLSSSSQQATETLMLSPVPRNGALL


Key:
[1] = target: T1, human urotensin II receptor (UT); experiment: displacement of 0.2 nM 125I-hUII from CHO cells expressing human UT
[2] = target: T2, UT receptor present in rat aortic ring; experiment: cell-based or functional assay
[3] = target: T2, UT receptor present in rat aortic ring; experiment: cell-based or functional assay; remark: listed apart in the source
[4] = target: T1, human urotensin II receptor (UT); experiment: dissociation from living CHO-UT cells started with 10^-6 M URP + 10^-6 M urocontrin ([Bip^4]URP)
Experimental: (§1) Binding assays were following known literature procedures using CHO cells stably transfected with hGPR14. […] After 90 min of incubation at room temperature, cells were washed, lysed, and the cell-bound radioactivity was quantified using a γ-counter. […] The cells were then washed, lysed, and the radioactivity counted on a γ-counter (1470 Automatic Gamma Counter, Perkin Elmer).

[5] = target: T1, human urotensin II receptor (UT); experiment: dissociation from living CHO-UT cells started with 10^-6 M URP alone
Experimental: as §1

[6] = target: T1, human urotensin II receptor (UT); experiment: displacement of 0.2 nM 125I-hUII from CHO cells expressing human UT; remark: listed apart in the source
[7] = target: T1, human urotensin II receptor (UT); experiment: as above; remark: listed apart in the source
Experimental: as §1, with “Cell Culture and Binding Experiments: Transfected CHO cells expressing the human urotensin receptor (CHO-UT) were maintained in Ham-F12 medium with 10% fetal bovine serum (FBS), 2 mM L-glutamine, 100 Ul/mL each of penicillin and streptomycin, and 400 μg/mL G418. […] Binding” for “Binding”

[8] = target: T2, UT receptor present in rat aortic ring; experiment: cell-based or functional assay; remark: listed apart in the source

Row | Molecule | Aortic Ring contraction Emax (%) [3] | pEC50 [6] | IC50 [7] | further results
1 | [Tbg^4]URP (peptide) | – | – | – | pEC50 [1]: < 5
2 | H-ACFWKYCV-OH (disulfide 2-7; SMILES CC(C)[C@H](NC(=O)[C@@H]1CSSC[C@H](NC(=O)[C@H](C)N)C(=O)N[C@@H](Cc2ccccc2)C(=O)N[C@@H](Cc2c[nH]c3ccccc23)C(=O)N[C@@H](CCCCN)C(=O)N[C@@H](Cc2ccc(O)cc2)C(=O)N1)C(=O)O) [urotensin II-related peptide (URP)] | 100 % of KCl (40 mM) contraction | – | – | URP pEC50, rat aortic ring pre-treated with 10^-6 M [Bip^4]URP [2]: 7.74; Aortic Ring contraction EC50 [3]: 7 nM; Aortic Ring contraction pEC50 [3]: 8.09
3 | H-ACFWKYCV-OH (disulfide 2-7; also: 125I-labelled, site not given here, used at 0.2 nM; also called radiolabeled URP) [^125I-URP] | – | – | – | half-life (t1/2) [4]: 12.1 min; half-life (t1/2) [5]: 13.1 min
4 | H-ACF[Phg]KYCV-OH (disulfide 2-7, H-Ala-Cys-Phe-Phg-Lys-Tyr-Cys-Val-OH; also called compound 14) [[Phg^4]URP] | 102 % of KCl (40 mM) contraction | 7.53 | 29 nM | –
5 | H-ACF[1Nal]KYCV-OH (disulfide 2-7, H-Ala-Cys-Phe-Nal-Lys-Tyr-Cys-Val-OH; also called compound 3) [[1-Nal^4]URP] | 86 % of KCl (40 mM) contraction | 7.77 | 17 nM | –
6 | H-ACF[dPhg]KYCV-OH (disulfide 2-7, also called compound 15) [[D-Phg^4]URP] | 116 % of KCl (40 mM) contraction | 7.56 | 29 nM | –
7 | ACF[Tic]KYCV-OH (disulfide 2-7) [[Tic^4]URP] | – | – | – | pEC50 [1]: < 5; Aortic Ring contraction Emax (%), maximum efficacy at 10^-5.5 M [3]: 43 % of KCl (40 mM) contraction
8 | ACF[d1Nal]KYCV (disulfide 2-7, also called compound 4; [D-Nal^4]URP) [[D-1-Nal^4]URP] | – | 7.33 | 46 nM | Aortic Ring contraction Emax (%), maximum efficacy at 10^-5.5 M [3]: 34 % of KCl (40 mM) contraction
9 | ACF[dAia]KYCV (disulfide 2-7; not fully specified (bridges); reading uncertain; also: D-Aia indole ring bonded to Lys5 backbone N, also called compound 13) [[D-Aia^4]URP] | 148 % of KCl (40 mM) contraction | 7.22 | 60 nM | –
10 | ACF[dTic]KYCV (disulfide 2-7) [[D-Tic^4]URP] | 128 % of KCl (40 mM) contraction | – | – | –
11 | AXFXKYCV (position 2 is beta,beta-dimethyl-cysteine (Pen); position 4 is Tiq; cyclic (Pen2-Cys7 disulfide), H-Ala-Pen-Phe-Tiq-Lys-Tyr-Cys-Val-OH; also called compound 20) [[Pen^2, Tiq^4]URP] | – | < 5 | – | –
12 | H-ACF[Cha]KYCV-OH (disulfide 2-7) [[Cha^4]URP] | – | – | – | Aortic Ring contraction Emax (%), maximum efficacy at 10^-5.5 M [3]: 77 % of KCl (40 mM) contraction
13 | ACF[dTiq]KYCV (disulfide 2-7, also called compound 17) [[D-Tiq^4]URP] | 113 % of KCl (40 mM) contraction | 7.68 | 21 nM | –
14 | ACF[dTle]KYCV-OH (disulfide 2-7, also called compound 8) [[D-Tbg^4]URP] | 99 % of KCl (40 mM) contraction | – | > 1000 nM | –
15 | H-ACF[Dip]KYCV-OH (disulfide 2-7) [[Dip^4]URP] | – | – | – | Aortic Ring contraction Emax (%), maximum efficacy at 10^-5.5 M [3]: 23 % of KCl (40 mM) contraction
16 | H-ACF[Tiq1c(1S)]KYCV-OH (disulfide 2-7, H-Ala-Cys-Phe-Tiq-Lys-Tyr-Cys-Val-OH; also called compound 16) [[Tiq^4]URP] | 126 % of KCl (40 mM) contraction | – | 10 nM | –
17 | H-ACF[Phe(4-I)]KYCV-OH (disulfide 2-7, H-Ala-Cys-Phe-Phe(I)-Lys-Tyr-Cys-Val-OH; also called compound 5; [para-iodo-Phe^4]URP) [[Phe(I)^4]URP] | – | 7.24 | 58 nM | Aortic Ring contraction Emax (%), maximum efficacy at 10^-5.5 M [3]: 92 % of KCl (40 mM) contraction
18 | H-ETPDCFWKYCV-OH (disulfide 5-10) [human urotensin II (hUII)] | 117 % of KCl (40 mM) contraction | – | – | hUII pEC50, rat isolated aorta pre-treated with 0.3 µM [Bip^4]URP [8]: 8.31; hUII pEC50, rat isolated aorta pre-treated with 1 µM [Bip^4]URP [8]: 7.6; hUII pEC50, rat isolated aorta pre-treated with 3 µM [Bip^4]URP [8]: 7.55; hUII pEC50, rat isolated aorta, vehicle [8]: 8.98; Aortic Ring contraction EC50 [3]: 1 nM; Aortic Ring contraction pEC50 [3]: 9.08
19 | H-ACF[Bip]KYCV-OH (disulfide 2-7) [[Bip^4]URP] | – | – | – | pIC50, reversal of contractile tone established in rat isolated aorta with 4 nM hUII [2]: 7.72
